Reference: patent US20240270860A1

Experiments:
Assay in all cases: peptide-array ELISA (CYS.S) [Continued]
E2LS2…2RPGWY2 = molecular target: T1, E2LS2…2RPGWY2
T1 sequence (peptide, 2 = Cys(ACM)): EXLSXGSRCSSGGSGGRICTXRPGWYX

…2…2RPGWY = molecular target: T2, …2…2RPGWY
T2 sequence (peptide, 2 = Cys(ACM)): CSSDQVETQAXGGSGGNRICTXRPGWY

VPE2LS2…2RPGWY2AL = molecular target: T3, VPE2LS2…2RPGWY2AL
T3 sequence (peptide, 2 = Cys(ACM)): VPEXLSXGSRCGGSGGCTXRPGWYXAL

[1] = molecular target: T4, REQNRI2…
T4 sequence (peptide, 2 = Cys(ACM)): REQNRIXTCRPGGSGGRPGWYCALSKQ

VPE2LS2…2RPGWY = molecular target: T5, VPE2LS2…2RPGWY
T5 sequence (peptide, 2 = Cys(ACM)): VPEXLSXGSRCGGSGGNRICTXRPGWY

PE2LS2…2RPGWY2 = molecular target: T6, PE2LS2…2RPGWY2
T6 sequence (peptide, 2 = Cys(ACM)): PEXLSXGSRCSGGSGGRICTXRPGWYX

PE2LS2…2RPGWY = molecular target: T7, PE2LS2…2RPGWY
T7 sequence (peptide, 2 = Cys(ACM)): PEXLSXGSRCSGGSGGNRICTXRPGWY

…2RPGWY = molecular target: T8, …2RPGWY
T8 sequence (peptide, 2 = Cys(ACM)): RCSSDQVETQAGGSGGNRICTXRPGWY

[2] = molecular target: T9, …2…
T9 sequence (peptide, 2 = Cys(ACM)): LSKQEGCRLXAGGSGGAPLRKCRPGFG

[3] = molecular target: T10, WY2…
T10 sequence (peptide, 2 = Cys(ACM)): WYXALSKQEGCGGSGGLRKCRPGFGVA

…2RPGWY2AL [4] = molecular target: T11, …2RPGWY2AL
T11 sequence (peptide, 2 = Cys(ACM)): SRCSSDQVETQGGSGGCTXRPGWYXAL

2…2RPGWY2 = molecular target: T12, 2…2RPGWY2
T12 sequence (peptide, 2 = Cys(ACM)): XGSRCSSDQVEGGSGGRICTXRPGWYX

[5] = molecular target: T13, QEGCRL2…2…
T13 sequence (peptide, 2 = Cys(ACM)): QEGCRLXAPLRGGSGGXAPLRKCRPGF

S2…2RPGWY2AL = molecular target: T14, S2…2RPGWY2AL
T14 sequence (peptide, 2 = Cys(ACM)): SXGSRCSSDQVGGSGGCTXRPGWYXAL

[6] = molecular target: T15, …2…; remark: listed apart in the source
T15 sequence (peptide, 2 = Cys(ACM)): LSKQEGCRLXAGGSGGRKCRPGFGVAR

[7] = molecular target: T16, Y2…
T16 sequence (peptide, 2 = Cys(ACM)): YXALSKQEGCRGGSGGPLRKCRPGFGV

E2LS2…2RPGWY = molecular target: T17, E2LS2…2RPGWY
T17 sequence (peptide, 2 = Cys(ACM)): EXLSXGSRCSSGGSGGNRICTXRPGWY

[8] = molecular target: T18, EGCRL2…
T18 sequence (peptide, 2 = Cys(ACM)): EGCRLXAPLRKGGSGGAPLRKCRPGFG

[9] = molecular target: T19, …2GGSGG2…
T19 sequence (peptide, 2 = Cys(ACM)): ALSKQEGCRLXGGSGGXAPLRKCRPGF

…2RPGWY2A = molecular target: T20, …2RPGWY2A
T20 sequence (peptide, 2 = Cys(ACM)): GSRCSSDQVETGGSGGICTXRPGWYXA

…2RPGWY2AL [10] = molecular target: T21, …2RPGWY2AL; remark: listed apart in the source
T21 sequence (peptide, 2 = Cys(ACM)): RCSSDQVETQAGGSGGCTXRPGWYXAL

[11] = molecular target: T22, EQNRI2…
T22 sequence (peptide, 2 = Cys(ACM)): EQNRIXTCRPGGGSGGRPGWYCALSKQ

E2LS2…2RPGWY2A = molecular target: T23, E2LS2…2RPGWY2A
T23 sequence (peptide, 2 = Cys(ACM)): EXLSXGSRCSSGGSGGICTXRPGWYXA

[12] = molecular target: T24, WY2…2…
T24 sequence (peptide, 2 = Cys(ACM)): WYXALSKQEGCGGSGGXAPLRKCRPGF

E2LS2…2RPGWY2AL = molecular target: T25, E2LS2…2RPGWY2AL
T25 sequence (peptide, 2 = Cys(ACM)): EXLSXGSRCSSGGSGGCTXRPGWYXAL

…2GGSGGCT2RPGWY2AL = molecular target: T26, …2GGSGGCT2RPGWY2AL
T26 sequence (peptide, 2 = Cys(ACM)): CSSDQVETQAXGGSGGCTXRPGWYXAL

[13] = molecular target: T27, …2AGGSGG2…
T27 sequence (peptide, 2 = Cys(ACM)): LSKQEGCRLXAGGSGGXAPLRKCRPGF

[14] = molecular target: T28, TREQNRI2…
T28 sequence (peptide, 2 = Cys(ACM)): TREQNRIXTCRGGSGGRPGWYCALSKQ

…2…2RPGWY2 = molecular target: T29, …2…2RPGWY2
T29 sequence (peptide, 2 = Cys(ACM)): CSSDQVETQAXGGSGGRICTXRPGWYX

LS2…2RPGWY = molecular target: T30, LS2…2RPGWY
T30 sequence (peptide, 2 = Cys(ACM)): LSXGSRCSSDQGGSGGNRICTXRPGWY

…2RPGWY2 = molecular target: T31, …2RPGWY2
T31 sequence (peptide, 2 = Cys(ACM)): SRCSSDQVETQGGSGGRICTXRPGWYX

VPE2LS2…2RPGWY2A = molecular target: T32, VPE2LS2…2RPGWY2A
T32 sequence (peptide, 2 = Cys(ACM)): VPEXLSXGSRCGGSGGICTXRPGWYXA

[15] = molecular target: T33, Y2…2…
T33 sequence (peptide, 2 = Cys(ACM)): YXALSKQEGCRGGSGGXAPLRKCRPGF

[16] = molecular target: T34, Y2…; remark: listed apart in the source
T34 sequence (peptide, 2 = Cys(ACM)): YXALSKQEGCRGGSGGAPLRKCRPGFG

[17] = molecular target: T35, WY2…; remark: listed apart in the source
T35 sequence (peptide, 2 = Cys(ACM)): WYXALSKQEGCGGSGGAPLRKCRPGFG

2LS2…2RPGWY2 = molecular target: T36, 2LS2…2RPGWY2
T36 sequence (peptide, 2 = Cys(ACM)): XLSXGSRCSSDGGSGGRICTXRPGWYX

[18] = molecular target: T37, SKQEGCRL2APGGSGG2…
T37 sequence (peptide, 2 = Cys(ACM)): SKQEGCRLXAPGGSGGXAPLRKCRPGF

Raw luminescence data (E2LS2…2RPGWY2): 478 | Raw luminescence data (…2…2RPGWY): 487 | Raw luminescence data (VPE2LS2…2RPGWY2AL): 483 | Raw luminescence data [1]: 228 | Raw luminescence data (VPE2LS2…2RPGWY): 853 | Raw luminescence data (PE2LS2…2RPGWY2): 585 | Raw luminescence data (PE2LS2…2RPGWY): 928 | Raw luminescence data (…2RPGWY): 247 | Raw luminescence data [2]: 253 | Raw luminescence data [3]: 336 | Raw luminescence data (…2RPGWY2AL [4]): 391 | Raw luminescence data (2…2RPGWY2): 614 | Raw luminescence data [5]: 570 | Raw luminescence data (S2…2RPGWY2AL): 538 | Raw luminescence data [6]: 474 | Raw luminescence data [7]: 381 | Raw luminescence data (E2LS2…2RPGWY): 389 | Raw luminescence data [8]: 312 | Raw luminescence data [9]: 560 | Raw luminescence data (…2RPGWY2A): 403 | Raw luminescence data (…2RPGWY2AL [10]): 319 | Raw luminescence data [11]: 263 | Raw luminescence data (E2LS2…2RPGWY2A): 454 | Raw luminescence data [12]: 327 | Raw luminescence data (E2LS2…2RPGWY2AL): 605 | Raw luminescence data (…2GGSGGCT2RPGWY2AL): 265 | Raw luminescence data [13]: 529 | Raw luminescence data [14]: 188 | Raw luminescence data (…2…2RPGWY2): 597 | Raw luminescence data (LS2…2RPGWY): 822 | Raw luminescence data (…2RPGWY2): 568 | Raw luminescence data (VPE2LS2…2RPGWY2A): 540 | Raw luminescence data [15]: 308 | Raw luminescence data [16]: 553 | Raw luminescence data [17]: 534 | Raw luminescence data (2LS2…2RPGWY2): 436 | Raw luminescence data [18]: 507
B1: antagonistic TNFR2 antibody TNFRAB1 (antibody, V domains shown)
VH: EVQLQESGGGLVKPGGSLKLSCAASGFTFSSYVMSWVRQTPEKRLEWVATISSGGSYTYYPDSVKGRFTISRDNAKNTLYLQMSSLRSEDTAMYYCARQRVDGYSSYWYFDVWGAGTAVTVSS
VL: DIVLTQSPAIMSASPGEKVTITCSASSSVYYMYWFQQKPGTSPKLWIYSTSNLASGVPVRFSGSGSGTSYSLTISRMEAEDAATYYCQQRRNYPYTFGGGTKLEIKR
